Measurements taken from article PMC2996635 (Journal of immunology (Baltimore, Md. : 1950), 2010).
Each block holds one molecule with its values, some of them ahead of it.

Key:
Assay in all cases: SEC
[1] = target: hrCD5-His (human CD5 domain 1 and rat CD5 domains 2 and 3, His tag) (human | rat)
[2] = target: mCD5-His (extracellular region of mouse CD5 fused to a His tag) (mouse)
SEC = target: the molecule itself

stoichiometry N [1]: 2
Molecule: hrCD5-His (human CD5 domain 1 and rat CD5 domains 2 and 3, His tag)

stoichiometry N [2]: 2
Molecule: mCD5-His (extracellular region of mouse CD5 fused to a His tag) (domain or fragment)

B1: hCD5-His (extracellular region of human CD5 fused to a His tag) (domain or fragment, UniProt P06127 25-372, looked up)
chain: RLSWYDPDFQARLTRSNSKCQGQLEVYLKDGWHMVCSQSWGRSSKQWEDPSQASKVCQRLNCGVPLSLGPFLVTYTPQSSIICYGQLGSFSNCSHSRNDMCHSLGLTCLEPQKTTPPTTRPPPTTTPEPTAPPRLQLVAQSGGQHCAGVVEFYSGSLGGTISYEAQDKTQDLENFLCNNLQCGSFLKHLPETEAGRAQDPGEPREHQPLPIQWKIQNSSCTSLEHCFRKIKPQKSGRVLALLCSGFQPKVQSRLVGGSSICEGTVEVRQGAQWAALCDSSSARSSLRWEEVCREQQCGSVNSYRVLDAGDPTSRGLFCPHQKLSQCHELWERNSYCKKVFVTCQDPNP
stoichiometry N (SEC): 2
